In one data set the test system is CHO-K1-huSeprase tumors. The data set can be described thus: Biodistribution and tumor targeting of AlexaFluor-680 conjugates, near-infrared optical imaging. It is filed as in vivo, Fox n1 nu mice. As for the experimental part:
For in vivo imaging assays female Fox n1 nu mice (6-8 weeks of age, Harlan, Envigo) were used. The experiments were performed according to national regulations and approved by the local animal experiments ethical committee. Subconfluent CHO-K1-huSeprase cells were harvested and resuspended in PBS to a density of 1×10^7 cells/ml. Prior to inoculation, cell viability was tested by 0.4% trypan blue exclusion assay (viable cells>90%). For subcutaneous injection 1×10^6 CHO-K1-huSeprase cells in 100 μl PBS were mixed with 100 μl Matrigel (Corning) and injected into the right side of the limb. When tumor volumes reached 600-800 mm^3, animals were randomly separated into several groups for different treatments (n=3 per each group). […] At different time points after the injection, mice were anaesthetized by inhalation of isoflurane. In vivo imaging was conducted using a Xenogen IVIS Spectrum imaging System (Perkin Elmer, USA). Maximal near infrared signals (NIRF) were quantified using Living Image 2.5 (Xenogen, Perkin Elmer) image analysis software. For ex vivo NIRF imaging, the mice were sacrificed, and the tumor and major organs of each mouse were excised, weighed and analyzed by Xenogen IVIS System.
To analyze the pharmacokinetic and tumor targeting properties of the AF680-(MC-FA-012)3 trimer biodistribution in female Fox n1 nu mice was monitored at six time points after injection (1, 2, 4, 6, 24 and 96 h). […] After each time point biodistibution was measured in vivo and ex vivo using a Xenogen Imaging system (FIG. 14 A+B). […] Overall, the background signals for the binder and for the non-binding control were in the same range.

The target in data set [1] is T1, recombinant human Seprase (rhuSeprase) (Homo sapiens, UniProt Q12884).
T1 construct: named pCEP4-IgKappa-huSeprase-coCHO_26-760aa-H6 and used for the generation of recombinant soluble human Seprase (rhuSeprase); mouse Ig kappa-chain V-J2-C secretion signal (N, cleaved yes); made in house; host or cells: FreeStyle CHO-S cells (transient transfection; purified from supernatant by Ni-chelate and SEC)
T1 sequence (Q12884 26-760): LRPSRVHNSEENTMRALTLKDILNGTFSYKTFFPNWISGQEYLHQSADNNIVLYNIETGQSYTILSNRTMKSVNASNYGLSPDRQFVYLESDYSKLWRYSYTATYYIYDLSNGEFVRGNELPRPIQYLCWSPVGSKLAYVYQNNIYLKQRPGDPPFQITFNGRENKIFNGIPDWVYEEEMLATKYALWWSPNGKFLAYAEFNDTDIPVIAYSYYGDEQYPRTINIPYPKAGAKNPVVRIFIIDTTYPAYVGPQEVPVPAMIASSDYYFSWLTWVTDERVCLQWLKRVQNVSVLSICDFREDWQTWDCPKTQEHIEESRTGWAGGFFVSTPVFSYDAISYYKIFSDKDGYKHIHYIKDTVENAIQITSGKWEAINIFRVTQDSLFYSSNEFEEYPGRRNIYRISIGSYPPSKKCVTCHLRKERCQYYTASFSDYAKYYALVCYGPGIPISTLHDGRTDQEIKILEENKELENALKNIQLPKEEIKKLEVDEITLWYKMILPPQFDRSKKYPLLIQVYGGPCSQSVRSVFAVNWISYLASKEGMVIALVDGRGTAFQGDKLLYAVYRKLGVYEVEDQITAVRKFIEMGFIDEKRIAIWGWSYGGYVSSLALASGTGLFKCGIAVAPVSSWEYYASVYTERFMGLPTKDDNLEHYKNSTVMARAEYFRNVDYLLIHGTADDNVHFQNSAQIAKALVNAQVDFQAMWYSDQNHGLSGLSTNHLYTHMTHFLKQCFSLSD
The experiment in a line: Surface plasmon resonance (Biacore T100) on immobilized rhuSeprase. It is filed as binding. Background: SPR reads the build-up and loss of mass on a sensor chip optically.

B1: AF680-(MC-FA-012)3: AlexaFluor 680 conjugated MC-FA-012 trimer (conjugate)
chain 1: GACPYSNWTPGRGPDCRRDSDCPGRCICRGNGYCG
chain 2: B1 chain 1
chain 3: B1 chain 1
modifications: left off: things letters cannot carry; small tags and cut ends
notes: AlexaFluor 680 conjugated MC-FA-012 trimer
As for B1, in the data set with CHO-K1-huSeprase tumors (mouse, in vivo), the kidney signals entry is given as “strong kidney signals”; the “signals in lung, heart, spleen and liver” value is given as “generally low”. For the same molecule, in the data set with CHO-K1-huSeprase tumors (up to 24 h after injection), the tumor uptake result was “specific and significant tumor uptake”. In data set [1], the “offrate, times slower compared to MC-FA-012” value is given as “around 134 times”. For the same molecule, the “ka” value in data set [1] (1:1 binding model) amounted to 1.68e+07 M⁻¹ s⁻¹.

(Values after patent publication US10370433B2, “Compositions and methods for diagnosis and treatment of cancer” (BIONTECH AG, priority 2015, dated 2019).)
